Some targets named below: GGC_5; GGC_13; GGC_6.
What all share (experiment): SPR
For orientation: SPR reads the build-up and loss of mass on a sensor chip optically.

By Kd is commonly meant the equilibrium constant for the complex coming apart. Read a high Kd as a looser complex.

B1: ghrelin receptor ICL3-specific antibody (antibody, V domains shown)
VH: EVQLQQSGAELVRPGASVKLSCKASGYTFTDYEMHWVKQTPVHGLEWIGAIDPETGGTVYNQKFKGKATLTADISSTTAYMELRSLTSEDSAVYFCISEDIDESKDYWGQGTTLTVSS
VL: DIVMTQSPSSLAVSAGEKVTLSCKSSQSLFNSRTRKNYLAWYQQKPGLSPTLLIYWASTRKSGVPDRFTGSGSGTDFTLTITSVQAEDLAVYYCKQSYYLRTFGGGTKLEIK
Turning to B1, the results for the Kd in the assay with GGC_5, with GGC_13 and with GGC_6 were 415 nM, 406 nM and 789 nM, respectively.

The record behind these values is PMC11236705 (2024).
